Measurements published in patent publication US20240043540A1 (Innovent, published 2024).

T1: recombinant cynomolgus monkey B7H3 protein (cynomolgus monkey, UniProt Q7TPB4 26-248 (rat entry))
T1 construct: also called SINO BIOLOGICAL Catalog No. 90806-C02H-50
T1 chain: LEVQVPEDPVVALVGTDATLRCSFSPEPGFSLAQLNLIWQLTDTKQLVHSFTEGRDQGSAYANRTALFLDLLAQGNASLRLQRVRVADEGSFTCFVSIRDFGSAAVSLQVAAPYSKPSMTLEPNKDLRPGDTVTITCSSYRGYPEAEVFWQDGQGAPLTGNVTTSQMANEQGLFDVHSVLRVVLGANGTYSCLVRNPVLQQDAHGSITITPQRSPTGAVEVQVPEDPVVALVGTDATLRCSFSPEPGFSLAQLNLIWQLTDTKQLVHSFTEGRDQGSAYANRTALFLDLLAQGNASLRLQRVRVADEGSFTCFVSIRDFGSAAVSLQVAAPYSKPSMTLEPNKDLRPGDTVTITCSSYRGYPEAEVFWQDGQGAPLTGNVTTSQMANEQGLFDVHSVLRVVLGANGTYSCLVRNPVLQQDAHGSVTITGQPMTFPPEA

T2: recombinant human 4Ig-B7H3 protein (human, UniProt Q5ZPR3 29-461)
T2 construct: also called human B7H3 protein; SINO BIOLOGICAL Catalog No. 11188-H08H
T2 sequence: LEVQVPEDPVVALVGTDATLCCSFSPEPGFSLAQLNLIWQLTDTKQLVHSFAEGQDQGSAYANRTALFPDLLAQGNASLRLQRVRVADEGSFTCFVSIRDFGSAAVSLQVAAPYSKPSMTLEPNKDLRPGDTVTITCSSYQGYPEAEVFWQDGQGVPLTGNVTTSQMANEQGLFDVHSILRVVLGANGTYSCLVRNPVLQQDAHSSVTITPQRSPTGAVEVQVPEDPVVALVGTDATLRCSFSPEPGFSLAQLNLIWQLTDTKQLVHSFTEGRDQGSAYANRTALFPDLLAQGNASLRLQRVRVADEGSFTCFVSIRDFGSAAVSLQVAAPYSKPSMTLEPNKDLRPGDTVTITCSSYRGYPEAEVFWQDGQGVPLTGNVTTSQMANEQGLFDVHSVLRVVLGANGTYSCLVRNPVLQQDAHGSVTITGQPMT

T3: recombinant human 2Ig-B7H3 protein (human, UniProt Q5ZPR3 29-466)
T3 construct: Bought soluble recombinant protein; also called ACRO Catalog No. B73-H52E2
T3 sequence: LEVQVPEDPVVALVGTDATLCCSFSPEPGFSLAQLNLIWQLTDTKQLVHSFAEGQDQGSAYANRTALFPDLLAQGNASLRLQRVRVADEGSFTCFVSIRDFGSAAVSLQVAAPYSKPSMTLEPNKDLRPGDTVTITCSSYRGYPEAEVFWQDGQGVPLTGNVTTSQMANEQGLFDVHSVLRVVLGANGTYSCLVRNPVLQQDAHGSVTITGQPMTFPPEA

T4: cynomolgus monkey B7H3 expressed on CHO cells (CHO-cynoB7H3) (cynomolgus monkey, UniProt Q7TPB4 26-316 (rat entry))
T4 chain: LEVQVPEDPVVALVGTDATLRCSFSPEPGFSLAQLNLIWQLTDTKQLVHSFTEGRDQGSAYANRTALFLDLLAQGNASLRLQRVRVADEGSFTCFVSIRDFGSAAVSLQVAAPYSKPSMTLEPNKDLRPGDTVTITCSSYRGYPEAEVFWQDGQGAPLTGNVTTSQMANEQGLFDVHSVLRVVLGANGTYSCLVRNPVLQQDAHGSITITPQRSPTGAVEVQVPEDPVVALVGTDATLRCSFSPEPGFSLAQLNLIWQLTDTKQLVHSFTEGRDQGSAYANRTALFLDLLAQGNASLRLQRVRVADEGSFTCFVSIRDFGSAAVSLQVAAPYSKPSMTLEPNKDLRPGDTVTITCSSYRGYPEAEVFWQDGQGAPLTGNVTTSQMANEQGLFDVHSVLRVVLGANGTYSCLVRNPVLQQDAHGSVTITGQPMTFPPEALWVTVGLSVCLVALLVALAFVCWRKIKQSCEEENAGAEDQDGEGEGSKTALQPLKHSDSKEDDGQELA

T5: human 2Ig-B7H3 overexpressed on CHO-S cells (CHOS-hB7H3-2Ig) (human, UniProt Q5ZPR3 29-534)
T5 construct: also called cells overexpressing human 2Ig-B7H3
T5 sequence: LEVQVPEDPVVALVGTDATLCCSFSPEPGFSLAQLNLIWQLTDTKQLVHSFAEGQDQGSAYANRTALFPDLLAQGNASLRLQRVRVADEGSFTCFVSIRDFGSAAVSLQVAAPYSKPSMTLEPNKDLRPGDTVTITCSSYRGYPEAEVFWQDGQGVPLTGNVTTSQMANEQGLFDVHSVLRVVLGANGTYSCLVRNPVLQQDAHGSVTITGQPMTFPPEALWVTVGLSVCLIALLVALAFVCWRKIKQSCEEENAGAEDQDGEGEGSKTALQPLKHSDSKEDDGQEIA

T6: human 4Ig-B7H3 overexpressed on CHO-S cells (CHOS-hB7H3-4Ig) (human, UniProt Q5ZPR3 29-534)
T6 construct: The entry includes the signal peptide; also called CHO-hB7H3-4Ig; cells overexpressing human 4Ig-B7H3
T6 sequence: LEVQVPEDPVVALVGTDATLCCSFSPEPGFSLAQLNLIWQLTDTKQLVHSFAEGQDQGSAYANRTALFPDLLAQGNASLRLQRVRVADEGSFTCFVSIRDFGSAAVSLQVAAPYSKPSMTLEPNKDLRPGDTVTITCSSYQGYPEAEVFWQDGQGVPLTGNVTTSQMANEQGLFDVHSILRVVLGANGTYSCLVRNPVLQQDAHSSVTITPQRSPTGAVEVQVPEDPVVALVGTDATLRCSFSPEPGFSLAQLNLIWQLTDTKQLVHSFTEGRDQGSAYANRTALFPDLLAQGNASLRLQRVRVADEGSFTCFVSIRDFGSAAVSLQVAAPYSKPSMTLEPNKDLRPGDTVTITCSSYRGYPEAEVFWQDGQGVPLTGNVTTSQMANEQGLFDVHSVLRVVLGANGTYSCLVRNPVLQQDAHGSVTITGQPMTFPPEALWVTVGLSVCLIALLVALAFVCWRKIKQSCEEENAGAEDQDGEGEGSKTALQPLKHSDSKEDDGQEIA


Columns and labels:
[1] = target: T1, recombinant cynomolgus monkey B7H3 …; assay: bio-layer interferometry (ForteBio), antibody loaded on sensor, antigen in solution
Method: (§1) The equilibrium dissociation constant (KD) for binding of the antibodies of the present invention to human B7H3 was determined by bio-layer interferometry (ForteBio). The ForteBio affinity assay was conducted according to the method (Estep, P et al., High throughput solution Based measurement of antibody-antigen affinity and epitope binding. mAbs, 2013.5(2): 270-8) known in the art.
(§2) Briefly, AMQ (Pall, 1506091) (for sample detection) or AHQ (Pall, 1502051) (for positive control detection) sensors were equilibrated offline in an assay buffer for 30 min, and were equilibrated online for 60 s to establish a baseline. The purified antibodies obtained as described above were loaded online onto an AHQ sensor (ForteBio) for the ForteBio affinity assay. The sensor with the loaded antibodies was then exposed to the antigens (including human 4Ig-B7H3, human 2Ig-B7H3 (ACRO, Catalog No. B73-H52E2) and cynomolgus monkey B7H3 (SINO BIOLOGICAL, Catalog No. 90806-C02H-50)) before transferring the sensor to the assay buffer for dissociation rate measurement. The KD values were analyzed using ForteBio analysis software.

[2] = target: T2, recombinant human 4Ig-B7H3 protein; assay: as above
Method: as §1, §2

[3] = target: T3, recombinant human 2Ig-B7H3 protein; assay: as above
Method: as §1, §2

[4] = target: T4, cynomolgus monkey B7H3 expressed on CHO …; assay: flow cytometry, hybridoma supernatant on CHO-cynoB7H3 cells
[5] = target: T1, recombinant cynomolgus monkey B7H3 …; assay: bio-layer interferometry (ForteBio), hybridoma antibody
[6] = target: T2, recombinant human 4Ig-B7H3 protein; assay: as above
[7] = target: T2, recombinant human 4Ig-B7H3 protein; assay: bio-layer interferometry (ForteBio), as in Example 3
Method: as §2
(§3) The binding affinity of the humanized antibodies obtained in Example 4 for the antigens (human B7H3 and cynomolgus monkey B7H3) was determined by ForteBio assay as described in Example 3, which was expressed as an equilibrium dissociation constant (KD).

[8] = target: T3, recombinant human 2Ig-B7H3 protein; assay: as above
Method: as §2, §3

[9] = target: T5, human 2Ig-B7H3 overexpressed on CHO-S …; assay: FACS (flow cytometry, MFI) on CHO-S cells overexpressing human 2Ig-B7H3, PE-conjugated anti-human Fc detection; panel 'Cell-level affinity of CHOS hB7H3(2Ig)'
Method: (§4) 1) CHOS-hB7H3-4Ig, CHOS-hB7H3-2Ig, and CHOS-cyno B7H3 cells were diluted with a PBS solution to 2×10⁶ cells/mL, and added to a U-bottom 96-well plate at 100 μL/well. Three-fold serially diluted antibodies were added.
(§5) 2) The above mixture was incubated on ice for 30 min. The cell suspension was centrifuged at 400 g for 5 min to remove the supernatant, and the cells were washed with a PBS solution to remove the unbound antibodies. 100 μL of the solution of PE-conjugated anti-human Fc antibody (SouthernBiotech) diluted at a ratio of 1:200 was added to each well, and the cells were incubated in the dark on ice for 30 min. Then the cell suspension was centrifuged at 400 g for 5 min to remove the supernatant. The cells were washed with PBS twice to remove the unbound PE-conjugated anti-human Fc antibody. Then the cells were resuspended with 100 μL of PBS, and the binding of the antibody to cells was assayed by FACS.

[10] = target: T6, human 4Ig-B7H3 overexpressed on CHO-S …; assay: FACS (flow cytometry, MFI) on CHO-S cells overexpressing human 4Ig-B7H3, PE-conjugated anti-human Fc detection; panel 'Cell-level affinity of CHOS hB7H3(4Ig)'
Method: as §4, §5

[11] = target: T1, recombinant cynomolgus monkey B7H3 …; assay: bio-layer interferometry (ForteBio), as in Example 3
Method: as §2, §3

Row | Binder | Kd [1] [nM] | Kd [2] [nM] | Kd [3] [nM] | binding result [4] | Kd [5] [nM] | Kd [6] [nM] | Kd [7] [nM] | Kd [8] [nM] | EC50 [9] [nM] | EC50 [10] [nM] | Kd [11] [nM]
1 | Ch19A2 chimeric antibody (antibody, human IgG1, kappa, V domains shown) VH: EVQLQQSGAELVRPGASVKLSCKTSGYIFTSYWIHWIKQRSGQGLEWIARIYPGTDSTFYNEKFKGRATLTADKSSSTVYLQLNSLKSEDSAVYFCHFITASDWYFDVWGAGTTVTVSS VL: DIVLTQSPAIMSASPGEKVTLTCSVSSSVNSNYLYWYQQKPGSSPKLWIYGTSNLASGVPARFSGSGSGPSYSLTISSMEAEDAASYFCYQWSSYPFTFGSGTKLEIKR | 0.59 | 0.362 | 5.74 |  |  |  |  |  |  |  | 
2 | 19A2 (hybridoma clone antibody) (antibody, V domains shown) VH: EVQLQQSGAELVRPGASVKLSCKTSGYIFTSYWIHWIKQRSGQGLEWIARIYPGTDSTFYNEKFKGRATLTADKSSSTVYLQLNSLKSEDSAVYFCHFITASDWYFDVWGAGTTVTVSS VL: DIVLTQSPAIMSASPGEKVTLTCSVSSSVNSNYLYWYQQKPGSSPKLWIYGTSNLASGVPARFSGSGSGPSYSLTISSMEAEDAASYFCYQWSSYPFTFGSGTKLEIK |  |  |  | binds | 0.977 | 0.987 |  |  |  |  | 
3 | Ch20G5 chimeric antibody (antibody, human IgG1, kappa, V domains shown) VH: EVQLQQSVPELVKPGASVKISCKTSGYTFTEYIMHWVKQSHGKNLEWIGGINPNNGGTTYNQKFKDKATLTVDKSSSTAYMELHNLTSEDSAVYYCTRRTPPWHFAVWGAGTSLTVSS VL: DIVLTQSPTIMSASPGEKVTMTCSASSSVSYIHWYQQKSGTSPKRWIFDTSRLASGVPARFSGSGSGTSYSLTISSMEAEDAATYYCQQWSSAPLTFGTGTTLELKR | 0.713 | 0.236 | 3.18 |  |  |  |  |  |  |  | 
4 | Hz20G5 humanized antibody (antibody, human IgG1, kappa, V domains shown) VH: QVQLVQSGAEVKKPGASVKVSCKASGYTFTEYIMHWVRQAPGQRLEWMGGINPGTGGTTYNQKFKDRVTITVDTSASTAYMELSSLRSEDTAVYYCTRRTPPWHFAVWGQGTLVTVSS VL: DIQLTQSPSFLSASVGDRVTITCSASSSVSYIHWYQQKPGKAPKRWIYDTSRLASGVPSRFSGSGSGTEFTLTISSLQPEDFATYYCQQWSSAPLTFGGGTKVEIKR |  |  |  |  |  |  | 0.371 | 6.3 | 7.54 | 6.28 | 
5 | MGA271 (positive control antibody) (antibody, V domains shown, also called Enoblituzumab) VH: EVQLVESGGGLVQPGGSLRLSCAASGFTFSSFGMHWVRQAPGKGLEWVAYISSDSSAIYYADTVKGRFTISRDNAKNSLYLQMNSLRDEDTAVYYCGRGRENIYYGSRLDYWGQGTTVTVSS VL: DIQLTQSPSFLSASVGDRVTITCKASQNVDTNVAWYQQKPGKAPKALIYSASYRYSGVPSRFSGSGSGTDFTLTISSLQPEDFATYYCQQYNNYPFTFGQGTKLEIK | 1.66 | 0.636 | 187 |  |  |  | 0.939 | 782 | 100 | 8.54 | 1.87
6 | Hz19A2 humanized antibody (antibody, human IgG1, kappa, V domains shown) VH: QVQLVQSGAEVKKPGASVKVSCKASGYIFTSYWIHWVRQAPGQGLEWMGRIYPGTESTFYNEKFKGRVTMTRDTSTSTVYMELSSLRSEDTAVYYCHFITASDWYFDVWGQGTLVTVSS VL: EIVLTQSPATLSLSPGERATLSCSVSSSVQSNYLYWYQQKPGQAPRLLIYGTSNLASGIPARFSGSGSGTDFTLTISSLEPEDFAVYYCYQWSSYPFTFGQGTKLEIKR |  |  |  |  |  |  | 0.601 | 10.4 | 138 | 8.51 | 0.968
